{"source": "the RNAGym collection of RNA variant scans (doi:10.1073/pnas.2313332121)", "parents": {"B1": {"name": "TPR t1 (parent)", "chain": "GACCAAUCUGCCCUCAGAGCUCGAGAACAUCUUCGGAUGCAGAGGAGGCAGGCUUCGGUGGCGCGAUAGCGCCAACGUCCUCAACCUCCAAUGCAUCCCACCACAUGAUGAUGCCUGAAGAGCCUUGGUUUUUUG"}}, "data": [{"variants_of": "B1", "assay": "polymerase ribozyme fitness, log enrichment relative to wild type (log ratio); higher = more active; in vitro selection for triplet polymerase activity", "summary_of_the_method": "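Mutant libraries of both subunits of a heterodimeric triplet polymerase ribozyme were PCR-built, transcribed, and selected once in triplicate, with frozen incubation at −7 °C and capture of gel-excised extended constructs on streptavidin beads before RT-PCR. Illumina sequencing of input and output libraries was filtered to genotypes with ≥10 input reads and ≥1 read per output. Fitness is the logarithm of genotype enrichment over wild-type enrichment, using inverse-variance-weighted replicate averages. The logarithm is base 2.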", "values": [{"variant": "GACCAAUCUGCCCUCAGAGCUCGAGAACAUCUUCGGAUGCAGAGGAAGCAGGCUUCGGUGACGCGAUAGCGCCAACGUCCUCAACCUCCAAUGCAUCCCACCACAUGAUGAUGCCUGAAGAGCCUUGGUUUUUUG", "note": "[G47A G61A]", "polymerase ribozyme fitness (log ratio)": -2.4}, {"variant": "GACCAAUCUGCCCUUAGAGCUCGAGAACAUCUUCGGAUGCAGAGGAGGCAGUCUUCGGUGACGCGAUAGCGCCAACGUCCUCAACCUCCAAUGCAUCUCACCACAUGAUGAUGCCUGAAGAGCCAUGGUUAUUUG", "note": "[C15U G52U G61A C98U U125A U131A]", "polymerase ribozyme fitness (log ratio)": -3.15}, {"variant": "GACCAAUCUGCCCUCAGAGCUCGAGAAUAUCUUCGGAUGCAGAGGAGGCAGGCUUCGGUGGCGCGAUAGCGCCAACGUCCUCAACCUCCAAUGCAUCCCACCACAUGAUGAAGCCUGAAGAACCUUGGAUUUUUG", "note": "[C28U U112A G122A U129A]", "polymerase ribozyme fitness (log ratio)": -6.54}, {"variant": "GACCAAUCUGCCCUCAGAGCUCGAGAACAUCUUCGGAUGCAGAGGAGGCAGCCUUCGGUGGCGCGAUAUCGCCAACGUCCUCAACCUCCAAUGCAUACCACCACAUGAUGAUGCCUGAAGAGCCUUGGUUUUUUG", "note": "[G52C G69U C97A]", "polymerase ribozyme fitness (log ratio)": -2.26}, {"variant": "GACCAAUCUGCACUCAGUGCUCGAGAACAUCUUCGGAUGCAGAGGAGGCAGGCUUUGGUGGCGCGAUAGCGCCAACGUUCUCAACCUCCAAUGCAUCCCACCACAUGAUGAUGCUUGCAGAGCCUUGGUUCUUUG", "note": "[C12A A18U C56U C79U C115U A118C U131C]", "polymerase ribozyme fitness (log ratio)": -3.23}, {"variant": "GACCAAUCUGCCCUCAGAGCUCGAGAACAUCUUCGGAUGCAGAGGAGGCAGGCUUCGGUGACGCGAUAGCGCCAACGUCCUCAACCUCCAAUGCAUCCCACCACAUGAUGAAGCCUGAAGAGCUUUGGUUUUUUG", "note": "[G61A U112A C124U]", "polymerase ribozyme fitness (log ratio)": 1.83}, {"variant": "GACCAAUCAGCACUCCGAGCUCGAGUACAUCUUCGGAUGCAGAGGAUGCAGGCUUCGGUGGCGCGAUAGCGCCAACGUCCUCAACCUCCAAUGCAUCCCACCACAUGAUGAUGCCUGAAGAGCCUUGGUUUUUUG", "note": "[U9A C12A A16C A26U G47U]", "polymerase ribozyme fitness (log ratio)": -5.44}, {"variant": "GACCAAUCUGCCCUCAGAGCUCGAGAACAUCUUCGGAUGCAGAGGGGGCAGGCUUCGGUGGCGCGAUAGCGCCAACGUCCUCAACCUCCAAUGCAUCCCAACACAUGAUGAUGCCUGAAGAGCCUUGGUUUUUUG", "note": "[A46G C101A]", "polymerase ribozyme fitness (log ratio)": -0.288}, {"variant": "GACCAAUCUGCCUUCAGAGCUCGAGAACAUCUUCGGAUGCAGAGGAGGCAGGCUUCGGUGGCGCGAUAGCGCCAACGUCCUCAACCUCCAAUGCAUCCUACCACAUGAUGAUGCCUGAAGAGCCUUGGUUUUGUG", "note": "[C13U C99U U133G]", "polymerase ribozyme fitness (log ratio)": -2.46}, {"variant": "GACCAAUCUGCCCUCAGAGCUCGAGAACAUCUUCGGAUGCAGAGGAGGCAGGCUUCGGUGGCGUGAUAGCGCCAACGUCCUUAACCUCCAAUGCGUCCCACCACAUGAUGAUGCCUGAAGAGCCUUGGUUUUUUG", "note": "[C64U C82U A95G]", "polymerase ribozyme fitness (log ratio)": -0.455}, {"variant": "GACCAAUCUGCCCUCAGAGCUCGAGAACAUCUUCGGAUGCAGAGGAGGCAGGCUUCUGUCGCGCGAUAGCGCCAACGUCCUCAACCUCCAAUGCAUCCCACCACAUGAUGAUGCCUGAAGAGCCUUGGUUUUUUG", "note": "[G57U G60C]", "polymerase ribozyme fitness (log ratio)": -3.3}, {"variant": "GACCUAUCUGCCGUCAGAGCUCGAGAACAUCUUCGGAUGCAGAGGAGGCAGGGUUCGGUGGCGCGAUAGCGCCAACGUCCUCAACCUCCAAUGCAUCCCACCACAUGAUGAUGCCUGUAGAGCCUUGGUUUUUUG", "note": "[A5U C13G C53G A118U]", "polymerase ribozyme fitness (log ratio)": -2.18}, {"variant": "GACCAAUCUGCCCUCAGAGAUCGAGAACAUCUUCGGAUGCAGAGGAGGCAGGCUUCGGUGGCGCGAUAGCGCCAACGUCCUCAACCUCCAAUGCAUCCCACCACAUGAUGAUGCUUGAAGAGCCUUGGUUUUUUG", "note": "[C20A C115U]", "polymerase ribozyme fitness (log ratio)": -3.52}, {"variant": "GACCAAUCUGCCCUCAGAGCUCGAGAACAUCUUCGGAUGCAGAGGAGGCAGGCUUCGGUGGCGCGAUAUCGCCAACGUCCUCAACCUCGAAUGCAUCCCACCACAUGAUGAUGCCUGAAGAGCCUUGGUUUUUUG", "note": "[G69U C89G]", "polymerase ribozyme fitness (log ratio)": -0.225}, {"variant": "GACCAAUCUGCCCUCAGAGCUCGAGAACAUCUUCGGAUGCAGAGGAGGCAGGCUUCGGUGGCGCGAUAGCGCCGACGUCCUCAACCUCCAAUGCAUCCCACCACAUGAUGAUGCCUGAAUAGCCUUGGUUUUUUC", "note": "[A74G G120U G135C]", "polymerase ribozyme fitness (log ratio)": 0.597}, {"variant": "GACCAAUCUGCCUUCAGAGCUCGAGAACAUCUUCGGAUGCAGAGAAGGCAUGCUUCGGUGGCGCGAUAGCGCCAACGUCCUCAACCUCCAAUGCAUCCCACCACAUGAUGAUGCAUGAAGAGCCUUGGUUUUUUG", "note": "[C13U G45A G51U C115A]", "polymerase ribozyme fitness (log ratio)": -3.13}, {"variant": "GACCAAUCUGCCCUCAGAGCUCGAGAACAUCUUCGGAUGCAGAGGAGGCAGGCUUCGGUGGCGCGAUAGCGCCAACGUCCUCAACCUCCAUUGCAUCCCAACACAUGAUGAUGCCUGAAGAGCCUUGGUUUUUUG", "note": "[A91U C101A]", "polymerase ribozyme fitness (log ratio)": -2.72}, {"variant": "GACCAAUCUGCCCUCAGAGCUCGAGAACAUCUUCGGAUGCAGAGGAGGCAGUCUUCGGUGGCGCGAUAGCGUCAACGUCCUCAACCUCCAAUGCAUCCCACCAAAUGAUGAUGCCUGAAGAGCCUUCGUUUUUUG", "note": "[G52U C72U C104A G127C]", "polymerase ribozyme fitness (log ratio)": -3.82}, {"variant": "GACCAAUCUGCCCUCAGAGCUCGAGAACAUCUUCGGAUGCAGAGGAGGGAUGCGUCGGUGGCGCGAUAGCGCCAACGUCCUCAACCUCCAAUGCAUCCCACCACAUGAUGAUGCCUGAAGAGCCUUGGUUUUUUG", "note": "[C49G G51U U54G]", "polymerase ribozyme fitness (log ratio)": -2.34}, {"variant": "GACCAAUCUGCACUCAGAGCUCGAGAACAUCUUCGGAUGCAGAGGAGGCAGGCUUCUGUGGCGCGAUAGCGCCAACGUCCUCAACCUCCAGUGCAACCCACCACAUGAUGAUGCCUGAAGAGCCUUGGUUUUUUG", "note": "[C12A G57U A91G U96A]", "polymerase ribozyme fitness (log ratio)": -3.09}, {"variant": "GACCACUCUGCCCUGAGAGCUCGAGAACAUCUUCGGAUGCAGAGGAGGCAGGCUGCGGUGGCGCGAUAGCGCCAACGUCCUCAACCUCCAAUGGAUCCCACCACAUGAUGAUGCCUGAAGAGCGUUAGUUUUUUG", "note": "[A6C C15G U55G C94G C124G G127A]", "polymerase ribozyme fitness (log ratio)": -3.17}]}]}
